In this assay the target is T1, human IFNAR-1 protein (form not stated) (human, UniProt P17181 28-436, limits assumed).
T1 construct: bispecific ELISA
T1 sequence (looked up): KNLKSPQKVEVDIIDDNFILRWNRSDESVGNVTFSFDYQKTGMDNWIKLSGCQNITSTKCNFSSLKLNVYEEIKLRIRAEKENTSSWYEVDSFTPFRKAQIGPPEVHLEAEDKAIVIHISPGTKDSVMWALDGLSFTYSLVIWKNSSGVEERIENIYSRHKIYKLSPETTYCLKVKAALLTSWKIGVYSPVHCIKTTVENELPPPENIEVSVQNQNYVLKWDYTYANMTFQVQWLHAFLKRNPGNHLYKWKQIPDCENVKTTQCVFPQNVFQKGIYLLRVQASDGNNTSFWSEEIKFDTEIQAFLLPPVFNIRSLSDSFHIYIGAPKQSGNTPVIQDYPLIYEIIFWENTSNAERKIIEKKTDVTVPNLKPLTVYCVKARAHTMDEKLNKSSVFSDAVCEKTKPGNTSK
Briefly: affinity ranking of expressed humanized 485G10 IgGs (method not named).

Positions count from the first letter of the chain named.

B1: 485G10 humanized VH0 + VL1 (antibody, V domains shown)
VH: QVQLVQSGAEVKKPGASVKVSCKASGFNIKDYYIHWVRQAPGQGLEWMGRIDPEDAETKYAPKFQGRVTMTRDTSISTAYMELSRLRSDDTVVYYCARYHGYWALDYWGQGTLVTVSS
VL: DIQMTQSPSSLSASVGDRVTITCKTSQNVGTNVAWFQQKPGKAPKSLIYSTSYRYSGVPSRFSGSGSGTDFTLTISSLQPEDFATYYCHQYFSYPYTFGPGTKVDIK
notes: Humanized IgG expressed in HEK293; also called VH0 + VL1 (485G10)
By Kd is commonly meant the constant that tells how readily two partners part at equilibrium. One may read the koff as the first-order rate constant of dissociation. The low end stands for slow dissociation, the high end for fast dissociation. As a reminder, the kon is a measure of how fast the partners come together. A higher kon goes with fast association. With B1, binding was characterised by a dissociation constant (Kd) of 9.33 nM, the off-rate (koff) was 0.00475 s⁻¹ and the association rate constant (kon) amounted to 509000 M⁻¹ s⁻¹.

B2: 485G10 humanized VH3 + VL1 (antibody, V domains shown)
VH: B1 VH with V20L, A24G, R38K, M48I, V68A, M70I, R72A, M81L, A97G
VL: B1 VL
notes: Humanized IgG expressed in HEK293; also called VH3 + VL1 (485G10)
B2 returned a Kd of 19.1 nM, a koff of 0.0185 s⁻¹ and an on-rate (kon) of 971000 M⁻¹ s⁻¹.

B3: 485G10 humanized VH3 + VL4 (antibody, V domains shown)
VH: B1 VH with V20L, A24G, R38K, M48I, V68A, M70I, R72A, M81L, A97G
VL: B1 VL with A13T, I21V, F36Y, S46P, L78V, V104L
notes: Humanized IgG expressed in HEK293; also called VH3 + VL4 (485G10)
B3 yielded a dissociation constant (Kd) of 0.766 nM, a koff of 0.000271 s⁻¹ and an association rate constant (kon) of 354000 M⁻¹ s⁻¹.

B4: 485G10 humanized VH3 + VL2 (antibody, V domains shown)
VH: B1 VH with V20L, A24G, R38K, M48I, V68A, M70I, R72A, M81L, A97G
VL: B1 VL with A13T, F36Y, S46P
notes: Humanized IgG expressed in HEK293; also called VH3 + VL2 (485G10)
In the case of B4, the affinity, expressed as Kd, was 0.864 nM; the koff is 0.000264 s⁻¹; the kon worked out at 306000 M⁻¹ s⁻¹.

B5: 485G10 humanized VH0 + VL4 (antibody, V domains shown)
VH: B1 VH
VL: B1 VL with A13T, I21V, F36Y, S46P, L78V, V104L
notes: Humanized IgG expressed in HEK293; also called VH0 + VL4 (485G10)
For B5, the dissociation constant Kd was found to be 1.25 nM, the off-rate constant (koff) came to 0.000318 s⁻¹ and the association rate constant (kon) came out at 255000 M⁻¹ s⁻¹.

B6: 485G10 humanized VH2 + VL1 (antibody, V domains shown)
VH: B1 VH with V20L, R38K, M48I, R72A, A97G
VL: B1 VL
notes: Humanized IgG expressed in HEK293; also called VH2 + VL1 (485G10)
B6 returned a Kd of 20.5 nM, a dissociation rate constant (koff) of 0.00663 s⁻¹ and a kon of 323000 M⁻¹ s⁻¹.

B7: 485G10 humanized VH3 + VL3 (antibody, V domains shown)
VH: B1 VH with V20L, A24G, R38K, M48I, V68A, M70I, R72A, M81L, A97G
VL: B1 VL with A13T, F36Y, S46P, L78V, V104L
notes: Humanized IgG expressed in HEK293; also called VH3 + VL3 (485G10)
B7 displayed an equilibrium dissociation constant (Kd) of 0.841 nM, a koff of 0.000279 s⁻¹ and a kon of 332000 M⁻¹ s⁻¹.

B8: 485G10 humanized VH0 + VL3 (antibody, V domains shown)
VH: B1 VH
VL: B1 VL with A13T, F36Y, S46P, L78V, V104L
notes: Humanized IgG expressed in HEK293; also called VH0 + VL3 (485G10)
B8 came in with a Kd of 1.07 nM, a koff of 0.000316 s⁻¹ and a kon of 294000 M⁻¹ s⁻¹.

B9: 485G10 humanized VH0 + VL2 (antibody, V domains shown)
VH: B1 VH
VL: B1 VL with A13T, F36Y, S46P
notes: Humanized IgG expressed in HEK293; also called VH0 + VL2 (485G10)
In the case of B9, the Kd was found to be 1.57 nM, the koff was 0.000439 s⁻¹ and the kon turned out to be 279000 M⁻¹ s⁻¹.

B10: 485G10 humanized VH2 + VL2 (antibody, V domains shown)
VH: B1 VH with V20L, R38K, M48I, R72A, A97G
VL: B1 VL with A13T, F36Y, S46P
notes: Humanized IgG expressed in HEK293; also called VH2 + VL2 (485G10)
As to B10, binding was put at a Kd of 0.906 nM, the koff was found to be 0.000298 s⁻¹ and the kon was found to be 329000 M⁻¹ s⁻¹.

B11: 485G10 humanized VH2 + VL4 (antibody, V domains shown)
VH: B1 VH with V20L, R38K, M48I, R72A, A97G
VL: B1 VL with A13T, I21V, F36Y, S46P, L78V, V104L
notes: Humanized IgG expressed in HEK293; also called VH2 + VL4 (485G10)
Molecule B11 came in with a dissociation constant (Kd) of 0.99 nM, a koff of 0.0003 s⁻¹ and a kon of 303000 M⁻¹ s⁻¹.

B12: 485G10 humanized VH1 + VL1 (antibody, V domains shown)
VH: B1 VH with R72A
VL: B1 VL
notes: Humanized IgG expressed in HEK293; also called VH1 + VL1 (485G10)
Turning to B12, the Kd came to 3.14 nM, the off-rate constant (koff) was determined as 0.00103 s⁻¹ and the kon is 328000 M⁻¹ s⁻¹.

The values are drawn from patent US20200399381A1 (I MAB BIOPHARMA US, published 2020).
